Experimental data reported in patent publication US20250295799A1 (Zymeworks, published 2025).
Numbering of substitutions follows the chain as printed. One block for each binder: values may come before it.

Key:
[1] = target: T1, human glypican-3 (GPC3) (human, UniProt P51654 25-554); test: cell-based or functional assay
[2] = target: T1, human glypican-3 (GPC3); test: flow cytometry on JHH-5 cells (GPC3-mid);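 further: antibody binding to cells at 4 °C for 24 h, detected with anti-human AF647 as geometric mean fluorescence of live cells versus antibody concentration, fitted by specific binding with Hill slope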
Experimental: (§1) Briefly, cells were seeded at 50,000 cells/well in V-bottom 96-well plates and treated with antibody for 24 hours at 4° C. to prevent internalization. […] Following incubation and washing, fluorescence was detected by flow cytometry on a BD LSRFortessa™ Cell Analyzer (BD Biosciences, Franklin Lake, NJ) with 1,000 minimum events collected per well. AF647/APC-A GeoMean (fluorescence signal geometric mean, proportional to anti-Human AF647 binding) in live cell population was plotted against antibody concentration using GraphPad Prism Version 9 (GraphPad Software, San Diego, CA). The Bmax, Curve Hill Slope (h) and Kd values were derived from the “Specific binding with Hill slope” nonlinear regression curve fit in GraphPad Prism Version 9.

[3] = target: T1, human glypican-3 (GPC3); test: flow cytometry on JHH-7 cells (GPC3-high);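 further: antibody binding at 4 °C for 24 h, detected with anti-human AF647 secondary, geometric mean fluorescence of live cells versus antibody concentration, fitted as specific binding with Hill slope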
Experimental: as §1

[4] = target: T1, human glypican-3 (GPC3); test: flow cytometry on CHO-S cells transfected with human GPC3;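 further: antibody binding to transiently transfected CHO-S cells after 24 hours at 4 °C, read as geometric mean fluorescence of anti-human AF647 in live cells, fitted against antibody concentration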
Experimental: (§2) Briefly, CHO—S cells were transiently transfected for −24 hours with a pTT5-based expression plasmid encoding human GPC3 or cynomolgus monkey GPC3, 0.5 μg DNA per 1 million cells, using the Neon™ Transfection System (Thermo Fisher Scientific Corp., Waltham, MA), to transiently express human or cynomolgus monkey GPC3. Cells transfected with GFP were used as negative transfection controls. Following transfection, cells were seeded at 50,000 cells/well in V-bottom 96-well plates and treated with antibody for 24 hours at 4° C. to prevent internalization. […] Following incubation and washing, fluorescence was detected by flow cytometry on a BD LSRFortessa™ Cell Analyzer (BD Biosciences, Franklin Lake, NJ) with 1,000 minimum events collected per well. AF647/APC-A GeoMean (fluorescence signal geometric mean, proportional to anti-Human AF647 binding) in live cell population was plotted against antibody concentration using GraphPad Prism Version 9 (GraphPad Software, San Diego, CA). The Bmax and Kd values were derived from the “Specific binding with Hill slope” nonlinear regression curve fit in GraphPad Prism Version 9.

[5] = target: T2, cynomolgus monkey glypican-3 (GPC3) (cynomolgus monkey, UniProt A5A6P7 25-554 (Pan troglodytes entry)); test: flow cytometry on CHO-S cells transfected with cynomolgus GPC3;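 further: antibodies incubated 24 h at 4 °C with transiently transfected cells, binding read as AF647 geometric mean fluorescence of live cells, GFP-transfected cells as negative control, Hill-slope specific-binding fit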
T2 construct: Transiently expressed on CHO-S cells; also called cynoGPC3; CynoGPC3-CHO
Experimental: as §2

[6] = target: T3, recombinant cynomolgus GPC3 (glypican-3) (cynomolgus monkey, UniProt A0A2K5VK50 24-558); test: SPR; Kd on human GPC3 divided by Kd on cynomolgus GPC3
T3 construct: also called cynoGPC3
Experimental: (§3) CM5 Series S sensor chip, Biacore™ amine coupling kit (NHS, EDC and 1 M ethanolamine), and 10 mM sodium acetate buffers were purchased from Cytiva Life Sciences (Mississauga, ON, Canada). PBS running buffer with 0.05% Tween20 (PBST) was purchased from Teknova Inc. (Hollister, CA). Antigens: recombinant human and cynomolgus GPC3 was purchased from ACROBiosystems (Newark, DE) and SEC purified on a Superdex 200 10/300 GL column (Cytiva) in PBST running buffer at 0.8 mL/min.
(§4) Screening of the antibodies for binding to GPC3 antigen was conducted via anti-Fc capture of antibodies, followed by the injection of five concentrations of GPC3. The anti-Fc surface was prepared on a CM5 Series S sensor chip by standard amine coupling methods as described by the manufacturer (Cytiva Life Sciences, Mississauga, ON, Canada). […] Approximately 150-400 RUs of each antibody (5-20 μg/mL) were captured on the goat anti-human IgG surface by injecting at 10 μL/min for 60s. Using single-cycle kinetics, five concentrations of a two-fold dilution series of human or cynomolgus GPC3 starting at 40 nM, 20 nM, 10 nM, or 5 nM depending on the antibody, with a blank buffer control were injected at 20 μL/min for 180s of contact time, followed by 180 s dissociation phase, resulting in sensorgrams with a buffer blank reference. The anti-Fc surface was regenerated to prepare for the next injection cycle by one pulse of 10 mM glycine/HCl pH 1.5 for 120 s at 40 μL/min. Blank-subtracted sensorgrams were analyzed and fit to the 1:1 Langmuir binding model using Biacore™ T200 Evaluation Software v3.2.

[7] = target: T4, recombinant human GPC3 (glypican-3) (human, UniProt P51654 25-559); test: SPR (Biacore T200), antibody captured by anti-Fc, GPC3 injected
T4 construct: also called huGPC3; hGPC3
Experimental: as §3, §4

[8] = target: T4, recombinant human GPC3 (glypican-3); test: SPR (Biacore T200), antibody captured by anti-Fc, GPC3 injected, single-cycle kinetics, 1:1 fit; average
Experimental: as §3, §4

[9] = target: T3, recombinant cynomolgus GPC3 (glypican-3); test: as above
Experimental: as §3, §4
Wherever JHH-5 Internalization (MFI) is given: test concentration or dose not given here.
Wherever JHH-7 Internalization (MFI) is given: test concentration or dose not given here.

JHH-5 Internalization (MFI) [1]: 8770 MFI
JHH-7 Internalization (MFI) [1]: 6560 MFI
Bmax (MFI) [2]: 5590 MFI
Kd [2]: 0.19 nM
Bmax (MFI) [3]: 14800 MFI
Kd [3]: 0.31 nM
Bmax (MFI) [4]: 2660 MFI
Kd [4]: 0.08 nM
Bmax (MFI) [5]: 3280 MFI
Kd [5]: 0.09 nM
B1: codrituzumab (v37575) (antibody, human IgG1, kappa, V domains shown)
VH: QVQLVQSGAEVKKPGASVKVSCKASGYTFTDYEMHWVRQAPGQGLEWMGALDPKTGDTAYSQKFKGRVTLTADKSTSTAYMELSSLTSEDTAVYYCTRFYSYTYWGQGTLVTVSS
VL: DVVMTQSPLSLPVTPGEPASISCRSSQSLVHSNRNTYLHWYLQKPGQSPQLLIYKVSNRFSGVPDRFSGSGSGTDFTLKISRVEAEDVGVYYCSQNTHVPPTFGQGTKLEIKR
notes: also called GC33; RG-7686

JHH-5 Internalization (MFI) [1]: 1200 MFI
JHH-7 Internalization (MFI) [1]: 1220 MFI
Bmax (MFI) [2]: 1940 MFI
Kd [2]: 3.39 nM
Bmax (MFI) [4]: 1860 MFI
Kd [4]: 0.25 nM
Bmax (MFI) [5]: 2320 MFI
Kd [5]: 0.22 nM
B8: H18L6_LC_N33E mAb, v40213 (antibody, human IgG1, kappa, V domains shown)
VH: QVQLVQSGAEVKKPGSSVKVSCKASGYTFTDYEMHWVKQAPGHGLEWIGAIDPETGDTAYNQKFKGKATLTADTSTSTAYMELSSLRSEDTAVYYCTRYFSFAYWGQGTLVTVSS
VL: EIVLTQSPATLSLSPGERATISCRSSQSLRHSEGNTYLQWYQQKPGQAPRLLIYKVSNRFSGVPARFSGSGSGTDFTLTISSLEPEDFAVYFCYQSKHVPYTFGGGTKVEIKR
notes: M3-H18L6 chains with the stated light chain point mutation, IgG1/kappa

JHH-5 Internalization (MFI) [1]: 9280 MFI
JHH-7 Internalization (MFI) [1]: 9040 MFI
Bmax (MFI) [2]: 4130 MFI
Kd [2]: 0.11 nM
Bmax (MFI) [3]: 10900 MFI
Kd [3]: 0.42 nM
Bmax (MFI) [4]: 2320 MFI
Kd [4]: 0.11 nM
Bmax (MFI) [5]: 2840 MFI
Kd [5]: 0.14 nM
B9: H18L6_LC_G34T mAb, v40209 (antibody, human IgG1, kappa, V domains shown)
VH: B8 VH
VL: B8 VL with E33N, G34T
notes: as for B8

Kd Fold difference (hu/cyno) [6]: 1.19 fold
Avg % binding huGPC3 (RU observed/theoretical) [7]: 43%
Kd [8]: 14.9 nM
Kd [9]: 12.5 nM
B12: v40204, H18L6_LC_G34E mAb (antibody, human IgG1, kappa, V domains shown)
VH: B8 VH
VL: B8 VL with E33N, G34E
notes: no number given for this variant

JHH-5 Internalization (MFI) [1]: 3560 MFI
JHH-7 Internalization (MFI) [1]: 3330 MFI
Bmax (MFI) [2]: 2940 MFI
Kd [2]: 0.24 nM
Bmax (MFI) [3]: 7420 MFI
Kd [3]: 0.4 nM
Bmax (MFI) [4]: 2100 MFI
Kd [4]: 0.11 nM
Bmax (MFI) [5]: 2640 MFI
Kd [5]: 0.17 nM
B14: H18L6_LC_G34V mAb, v40211 (antibody, human IgG1, kappa, V domains shown)
VH: B8 VH
VL: B8 VL with E33N, G34V
notes: as for B8

Bmax (MFI) [3]: 9230 MFI
Kd [3]: 0.56 nM
B16: H18L6_LC_N33K mAb, v40217 (antibody, human IgG1, kappa, V domains shown)
VH: B8 VH
VL: B8 VL with E33K
notes: as for B8

Kd [3]: > 47 nM
B18: H18L6_LC_N33D mAb, v40222 (antibody, human IgG1, kappa, V domains shown)
VH: B8 VH
VL: B8 VL with E33D
notes: as for B8

Continued, binder first:

B2: H18L6_LC_G34H mAb, v40205 (antibody, human IgG1, kappa, V domains shown)
VH: B8 VH
VL: B8 VL with E33N, G34H
notes: as for B8
JHH-5 Internalization (MFI) [1]: 9170 MFI
JHH-7 Internalization (MFI) [1]: 7320 MFI
Bmax (MFI) [2]: 4580 MFI
Kd [2]: 0.16 nM
Bmax (MFI) [3]: 12500 MFI
Kd [3]: 0.43 nM
Bmax (MFI) [4]: 2460 MFI
Kd [4]: 0.1 nM
Bmax (MFI) [5]: 2990 MFI
Kd [5]: 0.14 nM

B3: v40203, H18L6_LC_G34D mAb (antibody, human IgG1, kappa, V domains shown)
VH: B8 VH
VL: B8 VL with E33N, G34D
Kd Fold difference (hu/cyno) [6]: 1.2 fold
Avg % binding huGPC3 (RU observed/theoretical) [7]: 44.1%
Kd [8]: 13.7 nM
Kd [9]: 11.5 nM

B4: H18L6_LC_N33Q mAb, v40220 (antibody, human IgG1, kappa, V domains shown)
VH: B8 VH
VL: B8 VL with E33Q
notes: as for B8
Bmax (MFI) [3]: 7220 MFI
Kd [3]: 0.67 nM

B5: H18L6_LC_N33V mAb, v40215 (antibody, human IgG1, kappa, V domains shown)
VH: B8 VH
VL: B8 VL with E33V
notes: as for B8
Bmax (MFI) [3]: 9540 MFI
Kd [3]: 1.01 nM

B6: H18L6_LC_G34S mAb, v40210 (antibody, human IgG1, kappa, V domains shown)
VH: B8 VH
VL: B8 VL with E33N, G34S
notes: as for B8
JHH-5 Internalization (MFI) [1]: 8950 MFI
JHH-7 Internalization (MFI) [1]: 8900 MFI
Bmax (MFI) [2]: 4140 MFI
Kd [2]: 0.1 nM
Bmax (MFI) [3]: 10600 MFI
Kd [3]: 0.42 nM
Bmax (MFI) [4]: 2360 MFI
Kd [4]: 0.06 nM
Bmax (MFI) [5]: 2970 MFI
Kd [5]: 0.09 nM

B7: H18L6_LC_N33H mAb, v40218 (antibody, human IgG1, kappa, V domains shown)
VH: B8 VH
VL: B8 VL with E33H
notes: as for B8
Bmax (MFI) [3]: 8070 MFI
Kd [3]: 0.77 nM

B10: H18L6_LC_N33A mAb, v40219 (antibody, human IgG1, kappa, V domains shown)
VH: B8 VH
VL: B8 VL with E33A
notes: as for B8
Bmax (MFI) [3]: 7870 MFI
Kd [3]: 0.62 nM

B11: H18L6_LC_N33T mAb, v40214 (antibody, human IgG1, kappa, V domains shown)
VH: B8 VH
VL: B8 VL with E33T
notes: as for B8
Bmax (MFI) [3]: 9990 MFI
Kd [3]: 0.75 nM

B13: H18L6_LC_N33S mAb, v40221 (antibody, human IgG1, kappa, V domains shown)
VH: B8 VH
VL: B8 VL with E33S
notes: as for B8
Bmax (MFI) [3]: 7220 MFI
Kd [3]: 0.79 nM

B15: H18L6_LC_N33R mAb, v40216 (antibody, human IgG1, kappa, V domains shown)
VH: B8 VH
VL: B8 VL with E33R
notes: as for B8
Bmax (MFI) [3]: 9650 MFI
Kd [3]: 0.67 nM

B17: v40205, H18L6_LC_G34H mAb (antibody, human IgG1, kappa, V domains shown)
VH: B8 VH
VL: B8 VL with E33N, G34H
notes: as for B12
Kd Fold difference (hu/cyno) [6]: 1.19 fold
Avg % binding huGPC3 (RU observed/theoretical) [7]: 43.5%
Kd [8]: 10.4 nM
Kd [9]: 8.79 nM

B19: v38592, M3-H18L6 (WT) mAb (antibody, human IgG1, kappa)
heavy: not shown
light: EIVLTQSPATLSLSPGERATISCRSSQSLRHSNGNTYLQWYQQKPGQAPRLLIYKVSNRFSGVPARFSGSGSGTDFTLTISSLEPEDFAVYFCYQSKHVPYTFGGGTKVEIKRTVAAPSVFIFPPSDEQLKSGTASVVCLLNNFYPREAKVQWKVDNALQSGNSQESVTEQDSKDSTYSLSSTLTLSKADYEKHKVYACEVTHQGLSSPVTKSFNRGEC
notes: Same as v37574 but the heavy chain cDNA encodes a C-terminal lysine; also called wild-type M3-H18L6
Avg % binding huGPC3 (RU observed/theoretical) [7]: 51.9%
Kd [8]: 7.14 nM
Kd [9]: 4.54 nM
